Assays:
[1] = target: T1, IL-33 mutant protein K46A (human, UniProt O95760 112-270); test: ELISA as Example 9; row K46A
T1 construct: Prokaryotic expression
T1 chain: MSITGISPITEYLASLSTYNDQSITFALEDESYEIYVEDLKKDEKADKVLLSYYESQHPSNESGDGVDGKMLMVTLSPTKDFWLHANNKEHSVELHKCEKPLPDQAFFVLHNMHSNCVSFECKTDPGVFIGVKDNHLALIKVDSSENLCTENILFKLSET
Experimental: (§1) SA protein was diluted to 2 μg/mL to coat ELISA plate at 100 μL/well overnight at 4° C. The plate was washed with PBST (PBS containing 0.05% Tween20) for 3 times, and blocked with 2% BSA prepared in PBS at 200 μL/well, at room temperature for 2 h. After the plate was washed twice with PBST, IL-33-his-biotin protein was diluted to 1 μg/mL with 1% BSA prepared in PBST, and was added to ELISA plate at 100 μL/well. The plate was incubated at room temperature for 1 h, and each monoclonal antibody was diluted with 1% BSA prepared in PBST in a 3-fold gradient. The highest concentration of antibody was 10 μg/mL, and the antibody was diluted for 12 gradients. Each diluted monoclonal antibody was added to ELISA wells with 100 μL/well, and the plate was incubated at room temperature for 1 h. Each sample was added to duplicate wells in parallel. The plate was washed with PBST for 3 times, and HRP-anti human IgG Fc secondary antibody prepared with PBST was diluted at an appropriate ratio, and was added to ELISA wells at 100 μL/well. […] Each reaction solution was shaken uniformly and OD450 nm was read on a microplate reader. The data was analyzed and EC₅₀ was calculated.
(§2) Subsequently, according to the experimental method of Example 9, the affinity of the above mutant proteins to 874F7-Hu1 was determined, and IL-33 proteins (WT-1, WT-2, WT-3, and WT-4) without any mutation were set as controls.

[2] = target: T2, IL-33 mutant protein K48A (human, UniProt O95760 112-270); test: ELISA as Example 9; row K48A
T2 construct: Prokaryotic expression
T2 chain: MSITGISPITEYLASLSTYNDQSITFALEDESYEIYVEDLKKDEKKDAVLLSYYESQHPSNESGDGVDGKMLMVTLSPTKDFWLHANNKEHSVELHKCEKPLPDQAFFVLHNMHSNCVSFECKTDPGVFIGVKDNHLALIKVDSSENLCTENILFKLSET
Experimental: as §1, §2

[3] = target: T3, IL-33 mutant protein Q57A (human, UniProt O95760 112-270); test: ELISA as Example 9; row Q57A
T3 construct: Prokaryotic expression
T3 chain: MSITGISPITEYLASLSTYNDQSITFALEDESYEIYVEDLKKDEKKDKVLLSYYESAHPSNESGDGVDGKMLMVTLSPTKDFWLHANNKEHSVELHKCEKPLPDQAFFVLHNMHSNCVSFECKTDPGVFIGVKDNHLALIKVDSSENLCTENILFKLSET
Experimental: as §1, §2

[4] = target: T4, IL-33 mutant protein V67A (human, UniProt O95760 112-270); test: ELISA as Example 9; row V67A
T4 construct: Prokaryotic expression
T4 chain: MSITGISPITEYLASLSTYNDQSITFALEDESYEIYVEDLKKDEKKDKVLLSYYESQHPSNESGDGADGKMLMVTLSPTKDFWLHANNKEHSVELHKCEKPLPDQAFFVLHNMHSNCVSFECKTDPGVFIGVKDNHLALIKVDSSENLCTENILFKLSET
Experimental: as §1, §2

[5] = target: T5, IL-33 mutant protein K45A (human, UniProt O95760 112-270); test: ELISA as Example 9; row K45A against WT-1
T5 construct: Prokaryotic expression
T5 chain: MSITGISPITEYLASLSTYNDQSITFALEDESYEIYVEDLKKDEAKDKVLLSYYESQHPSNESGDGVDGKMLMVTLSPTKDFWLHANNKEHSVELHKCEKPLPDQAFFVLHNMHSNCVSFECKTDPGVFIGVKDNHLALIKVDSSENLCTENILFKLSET
Experimental: as §1, §2

[6] = target: T1, IL-33 mutant protein K46A; test: ELISA as Example 9; row K46A against WT-1
Experimental: as §1, §2

[7] = target: T6, IL-33 mutant protein V49A (human, UniProt O95760 112-270); test: ELISA as Example 9; row V49A against WT-2
T6 construct: Prokaryotic expression
T6 chain: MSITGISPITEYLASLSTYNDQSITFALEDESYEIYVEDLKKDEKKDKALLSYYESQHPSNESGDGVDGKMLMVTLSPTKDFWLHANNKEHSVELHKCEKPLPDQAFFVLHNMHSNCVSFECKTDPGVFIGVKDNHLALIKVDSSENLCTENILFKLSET
Experimental: as §1, §2

[8] = target: T7, IL-33 protein without any mutation (WT) (human, UniProt O95760 112-270); test: ELISA as Example 9; row WT-4, the reference itself
T7 construct: Control of the alanine scan (four runs WT-1 to WT-4); also called WT-1; WT-2
T7 sequence: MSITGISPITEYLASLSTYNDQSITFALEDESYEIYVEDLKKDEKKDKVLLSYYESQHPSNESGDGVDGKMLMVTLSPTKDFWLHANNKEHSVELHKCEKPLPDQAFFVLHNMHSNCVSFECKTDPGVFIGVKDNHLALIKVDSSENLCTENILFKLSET
Experimental: as §1, §2

Human IL-33-his = target: T8, Human IL-33-his (human, UniProt O95760 112-270, biotinylated with EZ-Link NHS-Biotin where used as IL-33-his-biotin); test: ELISA as Example 9, IL-33-his-biotin on streptavidin plate
T8 construct: Used plain (SPR, cell assays) and biotinylated (ELISA); also called IL-33-his-biotin
T8 sequence: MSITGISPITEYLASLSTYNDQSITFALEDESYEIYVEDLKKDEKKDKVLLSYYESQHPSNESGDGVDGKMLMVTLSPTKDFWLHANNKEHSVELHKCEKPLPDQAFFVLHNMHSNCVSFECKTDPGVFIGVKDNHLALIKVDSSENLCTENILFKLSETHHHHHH

[9] = target: T6, IL-33 mutant protein V49A; test: ELISA by the method of Example 9 with the IL-33 mutant protein on the plate, 874F7-Hu1 in serial dilution, HRP anti-human IgG Fc, absorbance 450 nm

- EC50 [1]: 0.23 nM
- EC50 [2]: 0.49 nM
- EC50 [3]: 0.12 nM
- EC50 [4]: 0.11 nM
- Affinity decline ratio [5]: > 25 fold
- Affinity decline ratio [6]: 1 fold
- Affinity decline ratio [7]: > 25 fold
- Affinity decline ratio [8]: 1 fold
- EC50 (Human IL-33-his): 0.129 nM
- EC50 (read off the curve) [9]: ~3 nM
B1: 874F7-Hu1 (antibody, human IgG4 S228P, kappa)
heavy: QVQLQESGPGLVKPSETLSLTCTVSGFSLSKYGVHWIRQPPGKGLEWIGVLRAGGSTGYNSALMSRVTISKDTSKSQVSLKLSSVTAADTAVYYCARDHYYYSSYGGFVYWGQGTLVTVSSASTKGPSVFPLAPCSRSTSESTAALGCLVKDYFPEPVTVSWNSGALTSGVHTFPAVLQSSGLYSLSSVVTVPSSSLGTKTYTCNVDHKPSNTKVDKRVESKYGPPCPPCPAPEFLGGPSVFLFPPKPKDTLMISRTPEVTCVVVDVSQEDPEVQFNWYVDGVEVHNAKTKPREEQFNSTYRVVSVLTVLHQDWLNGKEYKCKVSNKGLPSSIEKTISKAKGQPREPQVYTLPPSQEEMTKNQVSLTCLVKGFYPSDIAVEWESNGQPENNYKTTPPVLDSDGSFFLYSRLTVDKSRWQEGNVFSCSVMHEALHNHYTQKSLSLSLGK
light: DIQMTQSPSSVSASVGDRVTITCLASQTIGAWLAWYQQKPGKSPKLLIYAATRLADGVPSRFSGSGSGTDFTLTISSLQPEDFATYYCQQLDSSPYTFGQGTKVEIKRTVAAPSVFIFPPSDEQLKSGTASVVCLLNNFYPREAKVQWKVDNALQSGNSQESVTEQDSKDSTYSLSSTLTLSKADYEKHKVYACEVTHQGLSSPVTKSFNRGEC
notes: also called 874F7-Hul; humanized antibody 874F7-Hu1

Reference: patent US20230399394A1 (SUNSHINE GUOJIAN PHARMACEUTICAL SHANGHAI, published 2023)
